The target in this assay is Nup170p (recombinant, released from GST by thrombin) (S. cerevisiae, UniProt P38181 1-1502). Kind of assay: pull-down.
Sequence of Nup170p (recombinant, released from GST by thrombin) (P38181 whole entry): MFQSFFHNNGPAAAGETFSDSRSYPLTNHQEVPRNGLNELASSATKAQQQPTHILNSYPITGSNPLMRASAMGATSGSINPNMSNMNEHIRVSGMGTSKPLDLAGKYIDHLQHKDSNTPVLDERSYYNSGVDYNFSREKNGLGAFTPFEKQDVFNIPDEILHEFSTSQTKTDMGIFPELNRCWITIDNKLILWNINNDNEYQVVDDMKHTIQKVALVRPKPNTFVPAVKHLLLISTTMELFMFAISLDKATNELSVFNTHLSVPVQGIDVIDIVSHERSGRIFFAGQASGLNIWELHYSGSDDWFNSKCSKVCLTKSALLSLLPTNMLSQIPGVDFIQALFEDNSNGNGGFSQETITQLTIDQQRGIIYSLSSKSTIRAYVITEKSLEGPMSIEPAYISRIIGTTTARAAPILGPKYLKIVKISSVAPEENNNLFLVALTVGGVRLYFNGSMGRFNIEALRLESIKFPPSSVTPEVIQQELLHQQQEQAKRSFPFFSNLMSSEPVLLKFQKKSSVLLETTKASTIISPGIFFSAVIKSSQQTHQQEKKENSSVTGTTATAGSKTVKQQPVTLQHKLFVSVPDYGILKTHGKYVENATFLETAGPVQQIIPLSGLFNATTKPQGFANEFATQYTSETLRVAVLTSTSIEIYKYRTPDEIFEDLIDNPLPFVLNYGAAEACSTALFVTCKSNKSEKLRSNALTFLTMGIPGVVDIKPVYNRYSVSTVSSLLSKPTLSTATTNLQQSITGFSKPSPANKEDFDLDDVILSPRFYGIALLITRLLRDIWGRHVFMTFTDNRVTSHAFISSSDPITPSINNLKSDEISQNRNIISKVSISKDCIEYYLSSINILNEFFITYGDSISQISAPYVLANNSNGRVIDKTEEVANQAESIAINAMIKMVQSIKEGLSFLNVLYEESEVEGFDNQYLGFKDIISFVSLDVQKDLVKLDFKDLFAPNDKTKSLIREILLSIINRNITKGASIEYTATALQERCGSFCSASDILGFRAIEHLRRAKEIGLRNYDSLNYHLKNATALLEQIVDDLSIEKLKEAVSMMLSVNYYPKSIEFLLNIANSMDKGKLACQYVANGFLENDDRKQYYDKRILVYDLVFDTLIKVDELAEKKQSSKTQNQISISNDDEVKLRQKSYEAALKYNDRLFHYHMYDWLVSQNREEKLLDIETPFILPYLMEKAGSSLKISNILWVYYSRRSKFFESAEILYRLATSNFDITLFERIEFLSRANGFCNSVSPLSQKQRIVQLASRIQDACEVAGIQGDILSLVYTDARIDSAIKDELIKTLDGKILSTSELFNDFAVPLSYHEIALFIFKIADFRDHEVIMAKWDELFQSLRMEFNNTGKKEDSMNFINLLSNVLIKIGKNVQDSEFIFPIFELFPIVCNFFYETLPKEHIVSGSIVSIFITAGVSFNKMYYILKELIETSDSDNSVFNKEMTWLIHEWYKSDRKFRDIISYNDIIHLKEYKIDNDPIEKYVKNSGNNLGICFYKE

B1: GST-Pom152p^1-111 (domain or fragment, S. cerevisiae, UniProt P39685 1-111, looked up)
chain: MEHRYNVFNDTPRGNHWMGSSVSGSPRPSYSSRPNVNTTRRFQYSDDEPAEKIRPLRSRSFKSTESNISDEKSRISERDSKDRYINGDKKVDIYSLPLISTDVLEISKQRT
With B1, the binding result is reported as “binds”.

For the origin of these results see paper PMC2700392 (The Journal of Cell Biology, 2009).
